Tests used:
HeLa Kyoto [1] = experiment: melting temperature (median over replicates), in situ; higher = more thermally stable
HeLa Kyoto [2] = experiment: solubility change mitosis vs G1/S (difference of NP-40 vs SDS log2 ratios) (log2 ratio difference); higher = more soluble in mitosis
HeLa Kyoto [3] = experiment: solubility in G1/S (NP-40 vs SDS abundance) (log2 ratio); higher = more soluble; details: cell cycle stage: G1/S
HeLa Kyoto [4] = experiment: thermal stability score vs G1/S (z-score of summed log2 fold changes over temperatures); higher = more thermally stable than in G1/S
[5] = cell cycle stage: early G1 (4.5 h after nocodazole release)
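Throughout, for melting temperature (median over replicates), in situ: HeLa Kyoto cells synchronized by double thymidine or nocodazole block, proteins quantified by TMT10plex mass spectrometry, three independent biological replicates.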
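Throughout, for solubility change mitosis vs G1/S (difference of NP-40 vs SDS log2 ratios): synchronized HeLa Kyoto cells (double thymidine block for G1/S, nocodazole release for mitosis), protein amounts in NP-40 versus SDS lysates quantified by mass spectrometry, three biological replicates.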
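Throughout, for solubility in G1/S (NP-40 vs SDS abundance): HeLa Kyoto cells arrested at G1/S by double thymidine block, proteins quantified by TMT10plex mass spectrometry in mild NP-40 versus SDS extracts, three biological replicates.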
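Throughout, for thermal stability score vs G1/S (z-score of summed log2 fold changes over temperatures): synchronized HeLa Kyoto cells, proteins quantified by TMT10plex mass spectrometry, three biological replicates, mitosis taken 0.5 h after nocodazole release, G1/S directly after double thymidine block.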

Chain of CDC42 (chain, as listed by the source): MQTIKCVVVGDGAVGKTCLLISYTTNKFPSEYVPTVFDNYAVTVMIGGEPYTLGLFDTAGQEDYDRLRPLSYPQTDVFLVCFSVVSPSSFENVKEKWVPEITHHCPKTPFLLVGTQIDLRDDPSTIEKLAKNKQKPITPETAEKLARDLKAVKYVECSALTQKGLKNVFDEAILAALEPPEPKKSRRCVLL
Chain of DBNL (chain, as listed by the source): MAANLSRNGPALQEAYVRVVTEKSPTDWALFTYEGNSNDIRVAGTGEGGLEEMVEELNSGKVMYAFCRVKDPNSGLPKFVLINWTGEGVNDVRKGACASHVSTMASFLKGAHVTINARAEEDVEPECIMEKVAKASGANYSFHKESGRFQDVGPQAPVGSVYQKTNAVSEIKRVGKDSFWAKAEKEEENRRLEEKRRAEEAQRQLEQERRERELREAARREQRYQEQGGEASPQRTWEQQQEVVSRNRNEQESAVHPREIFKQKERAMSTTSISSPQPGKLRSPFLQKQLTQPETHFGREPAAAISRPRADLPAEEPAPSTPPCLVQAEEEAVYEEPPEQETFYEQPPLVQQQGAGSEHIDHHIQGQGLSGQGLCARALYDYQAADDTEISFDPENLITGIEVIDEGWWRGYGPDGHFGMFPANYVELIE
Chain of CDK16 (chain, as listed by the source): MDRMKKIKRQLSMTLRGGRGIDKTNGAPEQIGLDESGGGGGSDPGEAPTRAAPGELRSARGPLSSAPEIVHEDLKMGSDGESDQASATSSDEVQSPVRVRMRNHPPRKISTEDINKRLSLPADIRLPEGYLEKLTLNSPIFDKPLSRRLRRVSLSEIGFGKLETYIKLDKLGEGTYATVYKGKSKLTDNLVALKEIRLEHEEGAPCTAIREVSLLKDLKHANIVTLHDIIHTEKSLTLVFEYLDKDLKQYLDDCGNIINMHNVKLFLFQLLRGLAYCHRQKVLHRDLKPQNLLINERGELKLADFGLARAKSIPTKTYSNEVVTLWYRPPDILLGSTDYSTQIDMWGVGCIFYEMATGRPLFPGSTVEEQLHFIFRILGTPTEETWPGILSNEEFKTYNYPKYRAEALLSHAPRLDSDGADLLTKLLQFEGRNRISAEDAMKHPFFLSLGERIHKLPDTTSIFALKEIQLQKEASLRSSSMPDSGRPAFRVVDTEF
Chain of THBS1 (chain, as listed by the source): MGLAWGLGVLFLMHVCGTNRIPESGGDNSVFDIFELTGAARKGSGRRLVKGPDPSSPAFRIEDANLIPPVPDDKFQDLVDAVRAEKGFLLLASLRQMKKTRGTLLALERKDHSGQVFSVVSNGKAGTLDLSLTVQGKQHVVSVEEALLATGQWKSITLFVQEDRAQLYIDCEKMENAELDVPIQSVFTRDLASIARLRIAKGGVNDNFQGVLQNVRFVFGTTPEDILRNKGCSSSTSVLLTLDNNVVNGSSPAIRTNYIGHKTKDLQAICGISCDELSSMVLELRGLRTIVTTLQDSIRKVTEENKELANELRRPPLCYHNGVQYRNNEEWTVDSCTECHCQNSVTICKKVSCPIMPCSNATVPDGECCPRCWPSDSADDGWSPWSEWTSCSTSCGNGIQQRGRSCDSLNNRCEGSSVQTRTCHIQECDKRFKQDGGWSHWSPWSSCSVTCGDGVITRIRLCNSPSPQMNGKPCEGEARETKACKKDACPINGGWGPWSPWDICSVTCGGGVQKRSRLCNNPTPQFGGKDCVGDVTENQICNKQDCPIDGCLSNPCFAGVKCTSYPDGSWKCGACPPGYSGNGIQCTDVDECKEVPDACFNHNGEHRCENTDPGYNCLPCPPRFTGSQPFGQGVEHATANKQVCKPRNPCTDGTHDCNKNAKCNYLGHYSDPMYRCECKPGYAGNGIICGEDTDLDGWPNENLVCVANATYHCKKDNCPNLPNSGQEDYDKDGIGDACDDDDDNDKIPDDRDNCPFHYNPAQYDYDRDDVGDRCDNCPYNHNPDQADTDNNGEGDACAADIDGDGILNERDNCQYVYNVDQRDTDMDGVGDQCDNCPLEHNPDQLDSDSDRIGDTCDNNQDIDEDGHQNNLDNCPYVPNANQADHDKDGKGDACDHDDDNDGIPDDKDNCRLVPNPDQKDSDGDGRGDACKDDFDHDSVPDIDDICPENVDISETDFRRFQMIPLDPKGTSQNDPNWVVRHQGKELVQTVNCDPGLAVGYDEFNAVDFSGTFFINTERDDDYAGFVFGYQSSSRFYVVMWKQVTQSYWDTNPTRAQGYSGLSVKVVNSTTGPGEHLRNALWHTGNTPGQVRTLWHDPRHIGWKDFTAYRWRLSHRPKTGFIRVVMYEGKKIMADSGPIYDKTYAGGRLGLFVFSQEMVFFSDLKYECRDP
Chain of COPE (chain, as listed by the source): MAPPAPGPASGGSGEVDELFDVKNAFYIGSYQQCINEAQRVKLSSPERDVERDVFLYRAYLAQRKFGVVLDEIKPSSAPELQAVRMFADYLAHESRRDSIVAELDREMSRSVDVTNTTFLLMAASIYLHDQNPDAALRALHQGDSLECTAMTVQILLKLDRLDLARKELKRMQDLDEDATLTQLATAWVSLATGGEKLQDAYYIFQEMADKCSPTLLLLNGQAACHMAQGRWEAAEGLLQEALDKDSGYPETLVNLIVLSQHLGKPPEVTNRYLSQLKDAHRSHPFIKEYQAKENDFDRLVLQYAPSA
Chain of CYCS (chain, as listed by the source): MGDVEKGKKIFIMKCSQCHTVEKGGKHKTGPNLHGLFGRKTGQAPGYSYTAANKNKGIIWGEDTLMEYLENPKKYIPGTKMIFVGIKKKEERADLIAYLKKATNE
Chain of ARFGAP2 (chain, as listed by the source): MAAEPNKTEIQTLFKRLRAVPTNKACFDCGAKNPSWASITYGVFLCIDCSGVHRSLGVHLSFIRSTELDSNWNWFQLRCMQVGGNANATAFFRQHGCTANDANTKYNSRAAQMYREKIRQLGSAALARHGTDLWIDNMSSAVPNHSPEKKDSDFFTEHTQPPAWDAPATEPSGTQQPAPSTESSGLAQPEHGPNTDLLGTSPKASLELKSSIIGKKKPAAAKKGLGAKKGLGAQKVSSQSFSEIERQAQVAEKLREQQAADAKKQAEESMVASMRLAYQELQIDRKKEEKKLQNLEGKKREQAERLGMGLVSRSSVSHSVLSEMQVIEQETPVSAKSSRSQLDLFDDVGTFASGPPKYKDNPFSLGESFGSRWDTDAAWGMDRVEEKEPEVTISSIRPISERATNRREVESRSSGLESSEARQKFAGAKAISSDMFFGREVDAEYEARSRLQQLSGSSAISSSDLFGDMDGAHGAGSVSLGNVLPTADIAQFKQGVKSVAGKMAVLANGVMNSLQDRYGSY
Chain of ANKH (chain, as listed by the source): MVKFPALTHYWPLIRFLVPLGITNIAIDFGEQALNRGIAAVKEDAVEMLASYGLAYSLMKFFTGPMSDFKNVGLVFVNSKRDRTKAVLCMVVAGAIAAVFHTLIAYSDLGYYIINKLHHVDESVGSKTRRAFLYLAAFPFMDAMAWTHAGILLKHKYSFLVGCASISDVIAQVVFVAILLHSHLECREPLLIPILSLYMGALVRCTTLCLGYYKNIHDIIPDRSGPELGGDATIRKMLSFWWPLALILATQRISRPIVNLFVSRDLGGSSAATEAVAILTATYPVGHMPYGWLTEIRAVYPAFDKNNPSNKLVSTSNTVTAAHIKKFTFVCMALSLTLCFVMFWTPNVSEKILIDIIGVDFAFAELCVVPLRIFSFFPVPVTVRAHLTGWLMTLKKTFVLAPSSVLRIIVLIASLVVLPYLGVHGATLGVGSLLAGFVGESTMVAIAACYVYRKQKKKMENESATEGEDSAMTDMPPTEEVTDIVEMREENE

Substance	melting temperature (HeLa Kyoto [1]; cell cycle stage: G1/S)	melting temperature (HeLa Kyoto [1]; cell cycle stage: mitosis)	solubility change mitosis (log2) (HeLa Kyoto [2])	solubility in G1/S (log2) (HeLa Kyoto [3])	thermal stability score (HeLa Kyoto [4]; [5])	thermal stability score (HeLa Kyoto [4]; cell cycle stage: mitosis)
AKAP9	49.3 °C	49.6 °C	-0.0345	-0.0993	1.11	1.77
ALDH3A2	51 °C	50.7 °C	-0.0531	-0.186	-0.835	-0.622
ANKH	54.9 °C	58.2 °C	0.155	-0.292	-1.21	-1.75
ARFGAP2	49.6 °C	49.4 °C	-0.11	0.205	-0.318	-0.233
ARFGEF2	50.7 °C	50.5 °C	-0.155	-0.186	0.0515	-0.274
ARHGAP35	48.6 °C	49.4 °C	-0.124	-0.0977	1.69	3.46
ARHGEF12	50.7 °C	50.4 °C	-0.0996	-0.0555	-0.146	0.3
ASL	51.4 °C	52.1 °C	0.00521	-0.0391	3.02	4.07
ATP1B3	55.5 °C	56.1 °C	0.0393	0.832	-1.58	-2.77
ATP13A1	53.1 °C	52.9 °C	-0.00617	-0.281	-0.031	-0.441
BIRC6	51.6 °C	51.2 °C	-0.125	-0.141	-0.354	-0.341
CAD	50.6 °C	50 °C	-0.146	-0.137	-0.499	0.0146
CARKD	54.8 °C	56.1 °C	-0.211	0.243	-0.234	-1.33
CASC5	47.7 °C	48.3 °C	-0.0741	-0.247	1.3	1.4
CDC42	60.1 °C	59.8 °C	-0.0727	0.629	-1.73	1.82
CDC42BPA	49.8 °C	50.3 °C	-0.0814	-0.143	-0.472	0.207
CDK16	50.7 °C	53.1 °C	-0.105	0.548	-0.616	0.901
CELSR2	56.8 °C	54.6 °C	-0.142	0.141	-4.5	-5.14
CEP170	50.3 °C	51.5 °C	0.0625	-0.112	0.653	2.64
CIT	50.1 °C	50.4 °C	-0.113	-0.0433	0.287	0.352
CLASP1	48.8 °C	49.2 °C	-0.0633	-0.0269	-0.916	0.139

Substance	melting temperature (HeLa Kyoto [1]; cell cycle stage: G1/S)	melting temperature (HeLa Kyoto [1]; cell cycle stage: mitosis)	solubility change mitosis (log2) (HeLa Kyoto [2])	solubility in G1/S (log2) (HeLa Kyoto [3])	thermal stability score (HeLa Kyoto [4]; [5])	thermal stability score (HeLa Kyoto [4]; cell cycle stage: mitosis)
CLTCL1	50.8 °C	49.8 °C	-0.0594	-0.305	0.282	0.64
COL5A1	55.6 °C	55.3 °C	0.0059	-0.2	-0.461	1.15
COPE	50.3 °C	50.9 °C	0.0106	0.212	-0.526	-0.936
CSPG4	54.8 °C	55 °C	0.0955	0.0261	-3.28	0.175
CTSC	56.8 °C	59 °C	-0.0557	0.136	5.96	4.92
CTSZ	56.1 °C	55 °C	-0.0457	0.192	-1.5	-2.8
CYCS	57.1 °C	52.2 °C	0.139	-0.131	-1.79	-2.79
DBNL	49.5 °C	50.5 °C	-0.0864	0.177	-0.295	-0.854
DICER1	50.7 °C	50.1 °C	-0.07	-0.101	-0.0197	0.111
MSYYQRPFSPSAYSLPASLNSSIVMQHGTSLDSTDTYPQHAQSLDGTTSSSIPLYRSSEEEKRVTVIKAPHYPGIGPVDESGIPTAIRTTVDRPKDWYKTMFKQIHMVHKPDDDTDMYNTPYTYNAGLYNPPYSAQSHPAAKTQTYRPLSKSHSDNSPNAFKDASSPVPPPHVPPPVPPLRPRDRSSTEKHDWDPPDRKVDTRKFRSEPRSIFEYEPGKSSILQHERPASLYQSSIDRSLERPMSSASMASDFRKRRKSEPAVGPPRGLGDQSASRTSPGRVDLPGSSTTLTKSFTSSSPSSPSRAKGGDDSKICPSLCSYSGLNGNPSSELDYCSTYRQHLDVPRDSPRAISFKNGWQMARQNAEIWSSTEETVSPKIKSRSCDDLLNDDCDSFPDPKVKSESMGSLLCEEDSKESCPMAWGSPYVPEVRSNGRSRIRHRSARNAPGFLKMYKKMHRINRKDLMNSEVICSVKSRILQYESEQQHKDLLRAWSQCSTEEVPRDMVPTRISEFEKLIQKSKSMPNLGDDMLSPVTLEPPQNGLCPKRRFSIEYLLEEENQSGPPARGRRGCQSNALVPIHIEVTSDEQPRAHVEFSDSDQDGVVSDHSDYIHLEGSSFCSESDFDHFSFTSSESFYGSSHHHHHHHHHHHRHLISSCKGRCPASYTRFTTMLKHERARHENTEEPRRQEMDPGLSKLAFLVSPVPFRRKKNSAPKKQTEKAKCKASVFEALDSALKDICDQIKAEKKRGSLPDNSILHRLISELLPDVPERNSSLRALRRSPLHQPLHPLPPDGAIHCPPYQNDCGRMPRSASFQDVDTANSSCHHQDRGGALQDRESPRSYSSTLTDMGRSAPRERRGTPEKEKLPAKAVYDFKAQTSKELSFKKGDTVYILRKIDQNWYEGEHHGRVGIFPISYVEKLTPPEKAQPARPPPPAQPGEIGEAIAKYNFNADTNVELSLRKGDRVILLKRVDQNWYEGKIPGTNRQGIFPVSYVEVVKKNTKGAEDYPDPPIPHSYSSDRIHSLSSNKPQRPVFTHENIQGGGEPFQALYNYTPRNEDELELRESDVIDVMEKCDDGWFVGTSRRTKFFGTFPGNYVKRL [SORBS2]			0.819	-0.773	-2.13	0.899
MTSAAEIKKPPVAPKPKFVVANNKPAPPPIAPKPDIVISSVPQSTKKMKPAIAPKPKVLKTSPVREIGQSPSRKIMLNLEGHKQELAESTDNFNCKYEGNQSNDYISPMCSCSSECIHKLGHRENLCVKQLVLEPLEMNENLENSKIDETLTIKTRSKCDLYGEKAKNQGGVVLKASVLEEELKDALIHQMPPFISAQKHRPTDSPEMNGGCNSNGQFRIEFADLSPSPSSFEKVPDHHSCHLQLPSDECEHFETCQDDSEKSNNCFQSSELEALENGKRSTLISSDGVSKKSEVKDLGPLEIHLVPYTPKFPTPKPRKTRTARLLRQKCVDTPSESTEEPGNSDSSSSCLTENSLKINKISVLHQNVLCKQEQVDKMKLGNKSELNMESNSDAQDLVNSQKAMCNETTSFEKMAPSFDKDSNLSSDSTTVDGSSMSLAVDEGTGFIRCTVSMSLPKQLKLTCNEHLQSGRNLGVSAPQMQKESVIKEENSLRIVPKKPQRHSLPATGVLKKAASEELLEKSSYPSSEEKSSEKSLERNHLQHLCAQNRGVSSSFDMPKRASEKPVWKLPHPILPFSGNPEFLKSVTVSSNSEPSTALTKPRAKSLSAMDVEKCTKPCKDSTKKNSFKKLLSMKLSICFMKSDFQKFWSKSSQLGDTTTGHLSSGEQKGIESDWQGLLVGEEKRSKPIKAYSTENYSLESQKKRKKSRGQTSAANGLRAESLDDQMLSRESSSQAPYKSVTSLCAPEYENIRHYEEIPEYENLPFIMAIRKTQELEWQNSSSMEDADANVYEVEEPYEAPDGQLQLGPRHQHSSSGASQEEQNDLGLGDLPSDEEEIINSSDEDDVSSESSKGEPDPLEDKQDEDNGMKSKVHHIAKEIMSSEKVFVDVLKLLHIDFRDAVAHASRQLGKPVIEDRILNQILYYLPQLYELNRDLLKELEERMLHWTEQQRIADIFVKKGPYLKMYSTYIKEFDKNIALLDEQCKKNPGFAAVVREFEMSPRCANLALKHYLLKPVQRIPQYRLLLTDYLKNLIEDAGDYRDTQDALAVVIEVANHANDTMKQGDNFQKLMQIQYSLNGHHEIVQPGRVFLKEGILMKLSRKVMQPRMFFLFNDALLYTTPVQSGMYKLNNMLSLAGMKVRKPTQEAYQNELKIESVERSFILSASSATERDEWLEAISRAIEEYAKKRITFCPSRSLDEADSENKEEVSPLGSKAPIWIPDTRATMCMICTSEFTLTWRRHHCRACGKIVCQACSSNKYGLDYLKNQPARVCEHCFQELQKLDHQHSPRIGSPGNHKSPSSALSSVLHSIPSGRKQKKIPAALKEVSANTEDSSMSGYLYRSKGNKKPWKHFWFVIKNKVLYTYAASEDVAALESQPLLGFTVIQVKDENSESKVFQLLHKNMLFYVFKAEDAHSAQKWIEAFQEGTIL [FGD6]			0.03	-0.0552	-0.173	0.213
MTTEQRRSLQAFQDYIRKTLDPTYILSYMAPWFREEEVQYIQAEKNNKGPMEAATLFLKFLLELQEEGWFRGFLDALDHAGYSGLYEAIESWDFKKIEKLEEYRLLLKRLQPEFKTRIIPTDIISDLSECLINQECEEILQICSTKGMMAGAEKLVECLLRSDKENWPKTLKLALEKERNKFSELWIVEKGIKDVETEDLEDKMETSDIQIFYQEDPECQNLSENSCPPSEVSDTNLYSPFKPRNYQLELALPAMKGKNTIICAPTGCGKTFVSLLICEHHLKKFPQGQKGKVVFFANQIPVYEQQKSVFSKYFERHGYRVTGISGATAENVPVEQIVENNDIIILTPQILVNNLKKGTIPSLSIFTLMIFDECHNTSKQHPYNMIMFNYLDQKLGGSSGPLPQVIGLTASVGVGDAKNTDEALDYICKLCASLDASVIATVKHNLEELEQVVYKPQKFFRKVESRISDKFKYIIAQLMRDTESLAKRICKDLENLSQIQNREFGTQKYEQWIVTVQKACMVFQMPDKDEESRICKALFLYTSHLRKYNDALIISEHARMKDALDYLKDFFSNVRAAGFDEIEQDLTQRFEEKLQELESVSRDPSNENPKLEDLCFILQEEYHLNPETITILFVKTRALVDALKNWIEGNPKLSFLKPGILTGRGKTNQNTGMTLPAQKCILDAFKASGDHNILIATSVADEGIDIAQCNLVILYEYVGNVIKMIQTRGRGRARGSKCFLLTSNAGVIEKEQINMYKEKMMNDSILRLQTWDEAVFREKILHIQTHEKFIRDSQEKPKPVPDKENKKLLCRKCKALACYTADVRVIEECHYTVLGDAFKECFVSRPHPKPKQFSSFEKRAKIFCARQNCSHDWGIHVKYKTFEIPVIKIESFVVEDIATGVQTLYSKWKDFHFEKIPFDPAEMSK [DDX58]			-0.199	-0.211	0.775	0.756
MVDRLANSEANTRRISIVENCFGAAGQPLTIPGRVLIGEGVLTKLCRKKPKARQFFLFNDILVYGNIVIQKKKYNKQHIIPLENVTIDSIKDEGDLRNGWLIKTPTKSFAVYAATATEKSEWMNHINKCVTDLLSKSGKTPSNEHAAVWVPDSEATVCMRCQKAKFTPVNRRHHCRKCGFVVCGPCSEKRFLLPSQSSKPVRICDFCYDLLSAGDMATCQPARSDSYSQSLKSPLNDMSDDDDDDDSSD [PLEKHF2]			-0.0311	0.163	0.212	0.829
MWHEARKHERKLRGMMVDYKKRAERRREYYEKIKKDPAQFLQVHGRACKVHLDSAVALAAESPVNMMPWQGDTNNMIDRFDVRAHLDHIPDYTPPLLTTISPEQESDERKCNYERYRGLVQNDFAGISEEQCLYQIYIDELYGGLQRPSEDEKKKLAEKKASIGYTYEDSTVAEVEKAAEKPEEEESAAEEESNSDEDEVIPDIDVEVDVDELNQEQVADLNKQATTYGMADGDFVRMLRKDKEEAEAIKHAKALEEEKAMYSGRRSRRQRREFREKRLRGRKISPPSYARRDSPTYDPYKRSPSESSSESRSRSRSPTPGREEKITFITSFGGSDEEAAAAAAAAAASGVTTGKPPAPPQPGGPAPGRNASARRRSSSSSSSSSASRTSSSRSSSRSSSRSRRGGGYYRSGRHARSRSRSWSRSRSRSRRYSRSRSRGRRHSGGGSRDGHRYSRSPARRGGYGPRRRSRSRSHSGDRYRRGGRGLRHHSSSRSRSSWSLSPSRSRSLTRSRSHSPSPSQSRSRSRSRSQSPSPSPAREKLTRPAASPAVGEKLKKTEPAAGKETGAAKPKLTPQEKLKLRMQKALNRQFKADKKAAQEKMIQQEHERQEREDELRAMARKIRMKERERREKEREEWERQYSRQSRSPSPRYSREYSSSRRRSRSRSRSPHYRH [CLASRP]			0.526	-0.572	0.728	0.776
NHSL1			-0.0684	-0.0561	0.447	1.09
PPL			0.304	-0.342	-0.748	1.36
SVIL			0.176	-1.65	-0.947	0.478
TACC1			-0.0581	0.335	-4.04	-4.77
THBS1			0.0125	-0.19	4.61	5.07
URB2			0.744	-1.43	1.35	1.43

Reference: the supplement of paper PMC5998384
